Data published in patent US6017886A, “Use of NDF peptide as growth factor for sensory epithelium” (Amgen Inc., priority 1999, dated 2000).

B1: CNTF: recombinant derived ciliary-derived neurotrophic factor (CNTF) (protein, UniProt P26441 1-200, looked up)
Ciliary neurotrophic factor: MAFTEHSPLTPHRRDLCSRSIWLARKIRSDLTALTESYVKHQGLNKNINLDSADGMPVASTDQWSELTEAERLQENLQAYRTFHVLLARLLEDQQVHFTPTEGDFHQAIHTLLLQVAAFAYQIEELMILLEYKIPRNEADGMPINVGDGGLFEKKLWGLKVLQELSQWTVRSIHDLRFISSHQTGIPARGSHYIANNKKM
B2: KGF: recombinant derived keratinocyte growth factor (KGF) (protein, UniProt P21781 32-194, looked up)
Fibroblast growth factor 7: CNDMTPEQMATNVNCSSPERHTRSYDYMEGGDIRVRRLFCRTQWYLRIDKRGKVKGTQEMKNNYNIMEIRTVAVGIVAIKGVESEFYLAMNKEGKLYAKKECNEDCNFKELILENHYNTYASAKWTHNGGEMFVALNQKGIPVRGKKTKKEQKTAHFLPMAIT
B3: GDNF: recombinant derived glial-derived neurotrophic factor (GDNF) (protein, UniProt P39905 78-211, looked up)
Glial cell line-derived …: SPDKQMAVLPRRERNRQAAAANPENSRGKGRRGQRGKNRGCVLTAIHLNVTDLGLGYETKEELIFRYCSGSCDAAETTYDKILKNLSRNRRLVSDKVGQACCRPIAFDDDLSFLDDNLVYHILRKHSAKRCGCI
B4: FGF-10: recombinant derived FGF-10 (protein, UniProt O15520 38-208, looked up)
Fibroblast growth factor 10: QALGQDMVSPEATNSSSSSFSSPSSAGRHVRSYNHLQGDVRWRKLFSFTKYFLKIEKNGKVSGTKKENCPYSILEITSVEIGVVAVKAINSNYYLAMNKKGKLYGSKEFNNDCKLKERIEENGYNTYASFNWQHNGRQMYVALNGKGAPRRGQKTRRKNTSAHFLPMVVHS

These molecules were tested on utricular epithelium from seven day-old rats (assay: BrdU incorporation (mitogenic activity) in primary culture of infant rat utricular sensory epithelium). Settings: 50 ng/ml, seventy-two hours culture, infant (seven day-old) rat epithelium; control 50±7.
Type: cell-based
Experimental: Sensory edithelial cells obtained from utricles in the inner ear of both seven day-old (infant) rats and six week-old (adult) rats were isolated with the use of thermolysin treatment; see Corwin et al., Abstracts of the Association for Research in Otolaryngology, Volume 18, page 87 (1995). All edges were trimmed away and the central portion of the epithelium was cut into quarters. Epithelial cells from the infant rats were cultured in DMEM/F12 with 10% FBS (Gibco BRL, Grand Island, N.Y.), and 3 micrograms per milliliter (μg/ml) of mitosis tracer BrdU (Aldrich Chemicals, Milwaukee, Wis.) for seventy-two hours, with or without 50 nanograms per milliliter (ng/ml) of the peptide of SEQ ID NO: 1 or 50 ng/ml of recombinant derived FGF-10, recombinant derived FGF-16, recombinant derived ciliary-derived neurotrophic factor (CNTF), recombinant derived neurotrophic growth facor (NGF), recombinant derived glial-derived neurotrophic factor (GDNF), recombinant derived keratinocyte growth factor (KGF), or a control (no growth factor present). The experiment was ended by fixing in 4% paraformaldehyde for one hour.
After several washes, the explants were immunostained for calretinin (a vestibular organ hair cell marker) using rabbit antiserum (SWant Swiss Antibodies, Belinzona, Switzerland), diluted 1:10,000. The secondary antibody was goat anti-rabbit immunoglobulin conjugated to biotin, diluted 1:1,000. Extensive washes were followed by incubating the explants with egg white avidin conjugated to Cy3, diluted 1:1,000. The explants were fixed again with paraformaldehyde as described above, then processed for BrdU immunostaining (a measure of cell proliferation) using standard immunostaining protocols. The mouse monoclonal ant-BrdU antibody was obtained from Caltag Laboratories of San Franscisco, Calif. The secondary antibody, a goat anti-mouse conjugated to FITC, was obtained from Antibodies, Inc. of Davis, Calif.
In the case of B1, the “number of BrdU-positive nuclei per piece of epithelium” value (“number … per piece of epithelium” below) is reported as 23±3.
With B2 the “number … per piece of epithelium” value was 89±16.
In the case of B3, the “number … per piece of epithelium” value is reported as 37±13.
B4 was tested, and the “number … per piece of epithelium” value was 11±4.
